Laboratory results: patent US20220041738A1 (SAITAMA MEDICAL UNIVERSITY, published 2022)

T1: human ALK2-R202I on cells (human, UniProt Q04771 21-509)
T1 sequence: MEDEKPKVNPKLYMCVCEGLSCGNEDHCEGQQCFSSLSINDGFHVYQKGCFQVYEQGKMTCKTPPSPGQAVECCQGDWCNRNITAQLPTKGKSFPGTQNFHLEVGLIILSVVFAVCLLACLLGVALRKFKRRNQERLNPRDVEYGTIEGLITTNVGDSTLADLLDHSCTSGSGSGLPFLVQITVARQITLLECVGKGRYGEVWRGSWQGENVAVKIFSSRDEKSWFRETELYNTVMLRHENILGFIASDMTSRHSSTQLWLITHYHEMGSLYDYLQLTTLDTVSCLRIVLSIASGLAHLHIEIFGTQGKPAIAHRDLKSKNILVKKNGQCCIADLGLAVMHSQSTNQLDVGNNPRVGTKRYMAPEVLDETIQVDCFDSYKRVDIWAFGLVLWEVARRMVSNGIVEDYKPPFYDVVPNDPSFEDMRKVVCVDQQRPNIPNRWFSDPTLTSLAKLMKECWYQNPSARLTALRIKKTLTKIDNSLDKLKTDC

T2: human ALK2-G328W on cells (human, UniProt Q04771 21-509)
T2 sequence: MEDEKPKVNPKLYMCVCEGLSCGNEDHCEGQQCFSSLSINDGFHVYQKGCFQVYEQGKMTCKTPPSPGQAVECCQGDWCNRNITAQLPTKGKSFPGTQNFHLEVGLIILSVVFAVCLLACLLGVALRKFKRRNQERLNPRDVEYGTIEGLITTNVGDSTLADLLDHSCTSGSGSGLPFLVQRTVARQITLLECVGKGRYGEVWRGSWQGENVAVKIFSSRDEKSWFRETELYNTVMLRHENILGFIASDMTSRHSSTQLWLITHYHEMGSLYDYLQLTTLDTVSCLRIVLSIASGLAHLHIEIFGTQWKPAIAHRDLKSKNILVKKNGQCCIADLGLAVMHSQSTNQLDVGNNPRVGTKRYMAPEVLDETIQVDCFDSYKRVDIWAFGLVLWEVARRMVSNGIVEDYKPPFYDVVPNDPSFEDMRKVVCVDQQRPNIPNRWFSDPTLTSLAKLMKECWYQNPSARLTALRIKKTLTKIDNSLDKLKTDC

T3: wild-type human ALK2 on cells (cDNA in pcDEF3) (human, UniProt Q04771 21-509)
T3 construct: also called wild-type ALK2; ALK2 (WT)
T3 sequence: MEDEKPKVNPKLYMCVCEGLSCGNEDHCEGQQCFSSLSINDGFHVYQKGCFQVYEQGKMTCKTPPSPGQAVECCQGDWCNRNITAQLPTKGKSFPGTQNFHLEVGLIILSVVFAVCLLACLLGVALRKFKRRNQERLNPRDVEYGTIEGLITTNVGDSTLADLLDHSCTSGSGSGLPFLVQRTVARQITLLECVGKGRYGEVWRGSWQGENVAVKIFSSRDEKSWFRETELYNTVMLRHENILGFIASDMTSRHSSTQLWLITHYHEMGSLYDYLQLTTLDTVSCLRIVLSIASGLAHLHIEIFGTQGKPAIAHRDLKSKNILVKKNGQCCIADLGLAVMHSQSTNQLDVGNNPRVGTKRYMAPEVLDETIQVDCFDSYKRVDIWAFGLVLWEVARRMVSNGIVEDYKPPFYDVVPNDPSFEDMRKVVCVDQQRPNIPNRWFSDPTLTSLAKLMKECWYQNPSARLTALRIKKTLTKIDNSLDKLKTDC

T4: human ALK2-R206H on cells (human, UniProt Q04771 21-509)
T4 sequence: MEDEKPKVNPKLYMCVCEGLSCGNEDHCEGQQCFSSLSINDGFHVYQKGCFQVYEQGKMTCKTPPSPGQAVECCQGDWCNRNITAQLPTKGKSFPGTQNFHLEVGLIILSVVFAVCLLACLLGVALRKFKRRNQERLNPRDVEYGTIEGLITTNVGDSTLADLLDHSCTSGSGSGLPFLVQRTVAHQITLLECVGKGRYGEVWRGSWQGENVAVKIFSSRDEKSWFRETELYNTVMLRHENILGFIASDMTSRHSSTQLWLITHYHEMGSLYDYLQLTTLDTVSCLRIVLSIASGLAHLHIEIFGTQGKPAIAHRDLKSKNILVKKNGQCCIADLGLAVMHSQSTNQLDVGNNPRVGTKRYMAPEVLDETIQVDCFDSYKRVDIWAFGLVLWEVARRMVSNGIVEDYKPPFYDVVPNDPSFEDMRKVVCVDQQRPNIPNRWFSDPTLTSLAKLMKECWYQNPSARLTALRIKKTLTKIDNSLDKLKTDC


Tests used:
[1] = molecular target: T1, human ALK2-R202I on cells; test: immunofluorescence on transfected, formalin-fixed C2C12 cells, IgG at 10 µg/mL, Alexa 594 anti-rat IgG
Procedure: Mouse C2C12 cells were seeded into a 96-well plate (Greiner Bio-One) at 0.5×10³ cells/well, and cultured in 15% FBS-containing DMEM medium overnight under the conditions of 5% CO₂ at 37° C. On the following day, the C2C12 cells were transfected with each of a wild-type human ALK2 cDNA integrated into pcDEF3; pcDEF3/human ALK2-L196P, pcDEF3/human ALK2-P197_F198delinsL, pcDEF3/human ALK2-R202I, pcDEF3/human ALK2-R206H, pcDEF3/human ALK2-Q207E, pcDEF3/human ALK2-R258S, pcDEF3/human ALK2-G325A, pcDEF3/human ALK2-G328E, pcDEF3/human ALK2-G328R, pcDEF3/human ALK2-G328W, pcDEF3/human ALK2-G356D, and pcDEF3/human ALK2-R375P, which are variants identified in FOP; and pcDEF3 as a control, using Lipofectamine 2000 (Invitrogen), and further cultured overnight.
The C2C12 cells were fixed with 10% neutral formalin (Nacalai Tesque, Japan) for 20 minutes at room temperature, and then blocked with 10% goat normal serum for 30 minutes. After the blocking agent was removed, purified IgG diluted to 10 μg/mL with the blocking agent was added, and the cells were left for 1 hour at room temperature. After the cells were washed with PBS three times, Goat Alexa 594-conjugated anti-rat IgG (Invitrogen) diluted to 1:1000 with the blocking agent was added, and the cells were left for 1 hour at room temperature. After the cells were washed with PBS three times, the cells were fixed with 10% neutral formalin for 15 minutes at room temperature, and nuclear-stained with DAPI (LifeTechnologies). Fluorescent signals were analyzed with a fluorescence microscope BZ-9000 (Keyence).

[2] = molecular target: T2, human ALK2-G328W on cells; test: immunofluorescence (legend of FIG. 4)
How it was run: (§1)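 C2C12 mouse myoblasts transfected overnight with human ALK2 cDNA (wild-type or FOP variants incl. G325A, pcDEF3 vector). Cells formalin-fixed, goat-serum blocked, stained 1 h RT with purified IgG at 10 µg/mL, then Alexa 594 anti-rat IgG 1 h; DAPI nuclei, fluorescence microscopy read-out.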

[3] = molecular target: T3, wild-type human ALK2 on cells (cDNA in …); test: immunofluorescence (legend of FIG. 4)
How it was run: as §1

[4] = molecular target: T4, human ALK2-R206H on cells; test: immunofluorescence (legend of FIG. 4)
How it was run: as §1

| binding result [1] | binding result [2] | binding result [3] | binding result [4] | Binder |
| --- | --- | --- | --- | --- |
| binds |  |  |  | rat anti-ALK2 monoclonal antibody A2-25C (antibody, V domains shown, Rat monoclonal IgG from a hybridoma; also called 25C11) VH: EVQLVESGGGLVQPGGSLKLSCAASGFTFSYYAMSWVCQAPTKGLEWVASISRGGDNTYYRDTVKGRFTTSRDNAKNTLYLQMDSLRSEDTATYYCARLNYNNYFDYWGQGVMVTVSS VL: DIQMTQSPASLSASLEEIVTITCQASQDIGNWLSWYQQKPGKSPQLLIYGATSLADGVPSRFSGSRSGTQYSLKISRLRVEDIGIYYCLQAYSAPFTFGSGTKLEIKR |
| binds |  |  |  | rat anti-ALK2 monoclonal antibody A2-27D (antibody, V domains shown, Rat monoclonal IgG from a hybridoma; also called 27D11) VH: EVQLVESGGGLVQPGRSLKLSCLASGSTFSNYGMKWIRQAPGKGLEWVASISRSSTYIYYADTVKGRFTISRDNARNTLYLQMTSLRSEDTALYYCAAAISTPFYWYFDFWGPGTVVTVSS VL: EIVLTQSPTTMAASPGEKVTLNCLASSSVSYMTWYQQKSGASPKLWIYGTSNLASGVPNRFSGSGSGTSYSLAISSMEAEDVATYYCLHLTSYPPYTFGAGTKLELKR |
|  | binds | binds | binds | rat anti-ALK2 monoclonal antibody A2-11E (antibody, V domains shown, Rat monoclonal IgG from a hybridoma; also called 11E2) VH: EVQLVETGGGLVQPGRSLKLSCVASGFTFSNYYMYWIRQAPGKGLEWISSINTDGGSTYYPDSVKGRFAISRDNAENTVYLQMNSLRSEDTATYYCAKSTPNIPLAYWGQGTLVTVSS VL: DIQMTQSPSLLSASVGDRVTLSCKASQNIYKYLNWFQQKLGEAPKLLIYYSNSLQTGIPSRFSGSGSGTDFTLTISSLQPEDVAIYFCFQYSSGPTFGPGTKLELKR |
|  | binds | binds | binds | rat anti-ALK2 monoclonal antibody A2-15A (antibody, V domains shown, Rat monoclonal IgG from a hybridoma; also called 15A6) VH: EVQLVESGGGLVQPGRSLKLSCAASGFTFSHYYMAWVRQAPTKGLEWVASITNSGGSINYRDSVKGRFTISRDNAKSTLYLQMDSLRSEDTATYYCTREGGENYGGYPPFAYWGQGTLVTVSS VL: DIVLTQSPALAVSLGQRATISCRANQGVSLSRYNLMHWYQQKPGQKPKLLIYRSSNLASGIPARFSGSGSGTDFTLTINPVQADDIATYYCQQSRESPFTFGAGTKLELKR |
